Assay results taken from the DeepSol protein solubility set.

assay: soluble on expression in E. coli; label from the status in PepcDB or PDB records

Soluble on expression in E. coli, soluble:
SGCIGSRTVGNEVIAVDWKGLKDVDQINMDSTSSLHGSSLHRPSTEQTRTDFSWDGINLSMEDTTSILPKLKRNSNAYGIGALAKSSFSGISRSMKDHVTKPTAMGQGRVAHMIEWQGWGKTPAVQPQHSHESVRRDTDAYSDLSDGEKEARFLAGVMEQFAISEATLMAWSSMDGEDMSVNSTQEPLGCNYSDNYQELMDSQDALAQAPMDGWPHSYVSQGMYCLGSSDAWEASDQSLIASPATGSYLGPAFDDSQPSLHEMGPSQPASGYSALEPPPLLGGDTDWAPGVGAVDLARGPAEEEKRPLAPEEGEDAGCQDLESLSPREDPEMSTTLSRKVSDVTSSGVQSFDEEEGEANN
MGEQPIFTTRAHVFQIDPSTKKNWVPASKQAVTVSYFYDVTRNSYRIISVDGAKVIINSTITPNMTFTKTSQKFGQWADSRANTVFGLGFSSELQLTKFAEKFQEVREAAR
MSIAVGMIETRGFPAVVEAADSMVKAARVTLVGYEKIGSGRVTVIVRGDVSGVQASVSAGIEAANRVNGGEVLSTHIIARPHENLEYVLPIRYTEEVEQFRTYGVPRGLEHHHHHH
MSLKMETGKLLMELSNLDGPSGYETNVVSYIKSVIEPFVDEAKTTRHGSLIGYKKGKGIGKLAFFAHVDEIGFVVSKVEGQFARLEPVGGVDPKVVYASKVRIYTKNGIERGVIGMLAPHLQDSESRKKVPTYDEIFVDLSLCERGVRVGDIAVIDQTAFETNGKVVGKALDNRASCGVLVKVLEFLKRYDHPWDVYVVFSVQEETGCLGALTGAYEINPDAAIVMDVTFASEPPFSDHIELGKGPVIGLGPVVDRNLVQKIIEIAKKHNVSLQEEAVGGRSGTETDFVQLVRNGVRTSLISIPLKYMHTPVEMVDPRDVEELARLLSLVAVELEVEGGSHHHHHH
MKKFDVAIVGGGLAGLTASIYLAKVGRKVIVLEKSSQFGGRGMTTNKNGICMNLGAHALYRGGAAFITFNELGMTLPGGIPSTKAHGIWKGDIFTIPTDFRSILSTPLLSWSAKVQFSRLMIRLGNLDVGEVPKMSLTTWAENEIKDPMVRNIFYALCRTTTYTFAPTIQLASSVLKQIQLSIKEGVLYVDGGWETIITKLRAIANDIGVQFLAKKHVVEIEHSEGKQRIHCVDDEVFEVGTVIVTTPPKEACKIIKGAEGTSLHKWSEQSVPVTVGALDIGLRQLPNPTHQFVLGLDQPIFFTNQSRAAKLSEDGSIAVSLIKYHNPVLEMNHIHEDKEQLESTMELLHSNWKREVVAQQYLPKITVVHDFPHIDRVEKPGPNIPEMPGVYVAGDWAGHDEILADAAVASGKRAALHILKQYESEAVHHGNGAVILEHHHHHH
MSLNYNTPKVSIVVPSLNSISYIRECIDSILNQTLKDIEILCIDANSTDGTLEVLKNYEKKDKRLRVIISDKKSYGYQMNLGIKEAKGEYLGIVESDDYIKTNMYERLYEIAKKNDCEVVKGDFYIFAYGKTEYVNVLRNSCEDIYNYKVNWNKDIRIFLGSDGINPIGIYRLDLLRTNQIKLNETPGASYQDNGLWFQIFALAKSIYFINEAFYMLRRDNPNSSVKSKEKVYCACEEYDFIRDFLKKHPDLEKTLAPICALHRFGNYMFTLERIDERYKLDFLKRFSQDFRKILKDKELDENLFGNINMQRINKIIENPVIYYYFSRGARARLQNQLVYRLGKVVVEAKSFNKIIKLPFLMLKICLEHNFEHKVYRSIVQFRPDLKLLPLECYLDYHEALVIKEHLSYKFGKLILLSFKGWYKGKIFILPFMLKKRYKEYKNKMEGHHHHHH
MSLGIYMRDDILDIITLTTDFGTNEGYVGAMKGRILNILKKYNKDAKIIDISHEIKPFNIYHGAYVLLTAIPYFPPSVHVAVIDPTVGSERKSIVIETKSGYYLVGPDNGLFTYVAEKLGIKRIIKIDEERYKPSSTFHGRDVYAVVGAEILINNGYDGEELDEMVKIDETKKRVIHIDRFGNIITNIKKDEVTFKYYDTIMIKIRHKNGIEKIIKCKFVKSYFEEKNNFICLINSEGFLEISKFMDNASKLLNVDYLDEIEIEGGSHHHHHH
MAHSQVGIQLISESTEKTLAELIALCAEHNIIHNEKSPLALVQTDDRLELRKLDEPKLGAVYVDFVGGTMAHRRKFGGGRGEAVAKAVGIKGSALPTVIDATAGLGRDAFVLAAIGCQVRLVERHPVVFLLLQDGLNRAYQDEEIGEMLQQNLHLLNVQHINELDPNSDYADVVYLDPMYPHKQKSALVKKEMRVFQHLVGADLDADELLLPALQLAKKRVVVKRPDYAEFLCGKQPHFSHETKNHRFDIYMGASQC
MSLQEIIGASLVFLCNEKCEVLEDYGVVFDEKIVEIGDYQSLTLKYPHLKAQFFENSVLLPAFINAHTHFEFSNNKASFDYGSFSGWLGSVLNNGGAILENCQGAIQNAISTQLKSGVGSVGAISNHLIEVNLLKESPLNAVVFLEFLGSSYSLEKLKAFEAKFKELKDLEDKKLKAALAVHAPYSVQKDMALSVIQLAKDSQSLLSTHFLESLEELEWVENSKGWFENFYQHFLKESHFKSLYKGANDYIDMFKDTHTLFVHNQFASLEALKRIKSQVKNAFLITCPFSNRLLSGQALDLERTKEAGLSVSVATDGLSSNISLSLLDELRAFLLTHNMPLLELAKIALLGATRHGAKALALNNGEIEANKRADLSVFGFNEKFTKEQAILQFLLHAKEVECLFLGGKRVIEGHHHHHH
MKKPNGTNGASSSLEPPPSTFQPLCHPLVEEVSKEVDGYFLQHWNFPNEKARKKFVAAGFSRVTCLYFPKALDDRIHFACRLLTVLFLIDDLLEYMSFEEGSAYNEKLIPISRGDVLPDRSIPVEYIIYDLWESMRAHDREMADEILEPVFLFMRAQTDRTRARPMGLGGYLEYRERDVGKELLAALMRFSMGLKLSPSELQRVREIDANCSKHLSVVNDIYSYEKELYTSKTAHSEGGILCTSVQILAQEADVTAEAAKRVLFVMCREWELRHQLLVARLSAEGLETPGLAAYVEGLEYQMSGNELWSQTTLRYSVVVD
GMNTLLKQLKPYPFARLHEAMQGISAPEGMEAVPLHIGEPKHPTPKVITDALTASLHELEKYPLTAGLPELRQACANWLKRRYDGLTVDADNEILPVLGSREALFSFVQTVLNPVSDGIKPAIVSPNPFYQIYEGATLLGGGEIHFANCPAPSFNPDWRSISEEVWKRTKLVFVCSPNNPSGSVLDLDGWKEVFDLQDKYGFIIASDECYSEIYFDGNKPLGCLQAAAQLGRSRQKLLMFTSLSKRSNVPGLRSGFVAGDAELLKNFLLYRTYHGSAMSIPVQRASIAAWDDEQHVIDNRRLYQEKFERVIPILQQVFDVKLPDASFYIWLKVPDGDDLAFARNLWQKAAIQVLPGRFLARDTEQGNPGEGYVRIALVADVATCVKAAEDIVSLYR
MAKARRRRVRDTWKEKKWYVIKSPKLFGENEIGTTPSRDPDFLLKRRVEATMRELTGDFSKQYVKLKFQIDSVAGSEATTRFIGHQVTTDYVRSMIRRGTSRVDAPVIVETKDGYKLKVHPLAITIRRAKSSQQKYMRQSIEEHLREIASEKTFEELVEGIVTGKIASEIYHQAKKIYPLKRVEIIKSRVLEEPALEHHHHHH

Soluble on expression in E. coli, not soluble:
MKGEIEGITDDGIGVRVIDKNGFEHKIEMLFDGEIVYHHQKGYPDNPKERTNEEDESVAQARRFARYHVYREKGYDTVPNPDNPDRIAAVLLALIGLDDQQFDQYFGMLYEQMASHERADVAPVLDLPQEVYSEEFIVYKQNVYLEESLDAMQDQLTQPATEVFGEENLQEFLQETGDGLVAKARSLVGGGTDEDEDASEEPSIPEADLSIADVSGLDTMYSTPEGYKTIEGEDPVSREPDARIETLPMGYTREQFRYHVGHNLICQIRDCFISMGVEPPAQYRLLGHGKFKYSAKYRDFDFYPDYWDYEANIPGYSSPV
SLTAISKMTRGLDYYEVMGLTRSANDIDIRRAYRRLALKYHPDINKDGAAGDEFLRICEAYEVLCDPKTKGFYDLYGEDALKDGISDGNGGLKGPMYRFNPEESPKAVFERFFGTANPYEALEALSNQFESMTSEEAPARGKNKVYPLELTLEEIFHGCLKKVAHKRKVLLFSGEYVEEERQLTVDVKPGLPTGTRFVFEGEGNKTPKKEPGPVVFVLKPKPHPRFVRRGSDLVHKVTLPLHHALIGTTLDIRTLDDRDLKVPISDIMRPGSSLTVPGEGMPLPATPSARGNLVIEIDLLFPTHLTETQKMLLRSAFFLPPPTEQNEETKKALRDYEAAFKHDLKGWATVFKRL
MGHHHHHHSHMEPEAFEICPYDPHHRIPLSRFQYHLASCRRKNPKKAKKMATCKYNACHVVPIKNLEEHEAVCVNRSAVEEEDTENPLKVSPPSSEQNDDTQQVSPCLPSPDIWNVDGANCQHVFVLKTFFPQKVVCENDTKESARETSPQKILRPGQ
MTSRGITSLSNHLIPLSFPARLRIDQADKQAQAGLMKDHAQHTANIGKFQDSFVTADGQARASVPLSRPETLWFNTGTLCNIECANCYILSSPKNDALVYLSADEVSAYLDQIAARGWPVHEIGFTGGEPFMNPQIIAMSRTALERGFEVLILTNAMRPMMRKTMRLGVAALVRDFGDRLTLRVSVDHHSAACHDAERGAGSFARTLAGMVWLRDCGARMTVAGRTVWGESEAEARAGYAALYAEYGFAIDAFDPGQTVLFPEMDERVEVPEITTACWDILGKSPETVMCASSRMVVKRKGAAHPVVLACTLLPYAPEFELGQTLAEAERPVQLNHPHCAKFCVLGGASCSA
MPFKPLVTAGIEGLLNTFLYRSPALKSARTRLQGKVLCVKLKGFSMPLVLVFSERQVDVLGAWEGEADCTVITQASVLPKLRDRQQLATLIRSGELEVQGDIQVVQNFVALADLAEFDPAELLAPYTGDIAAESIGKVVRGGAKFLRHGFQRQQRYAAEAITEEWRMAPGPLEVAWFAEETAAVERAVDSLTTRLEKLEAK
MKTRDRILECSLLLFNEQGEPNVSTLEIANELGISPGNLYYHFHGKEPLVMALFERFQAELAPLLDPPEEVRLGAEDYWLFLHLIVERLAHYRFLFQDLSNLTGRLPRLARGIRTWLGALKRTLATLLARLKADRQLRSDAPALGQLVEQITLTLLFSLDYQRVLGSKGEVRTVVYQIMMLVAPHLRSEAQRSAESLAQRYLGPE
MGSDKIHHHHHHAQKNAAAVTLNLAKAVTQSPKTVLMSELASDVRYFPLETTDNCLLGNECSIIYAGNSIIAGDAQTRSFYRFDKNGKFMNKIGRQGQGPEEYAVGLLFFTDPDNQKLYVQDFQDIICYGFNGKFLRRIPAPHLNMGTGAVDGQGSILYCDNNYFMRKDNPQQLFLIDENGKKLKIWKGYMEPGKKYGVNLSTRDVMYCYGGDIYFKPALENLIYKIDANRKKTLAWKFDCSGKDVDVSANEIDPGKRFQSIAVQQVFESDRYFFVLYVLKNESFVGLYDKQKKSFSNVIIKDDLAAGFDFTPPGTGLGNQLANARMVGYLSKGKRYSKALLPERKKELDELINRLDEEDNPVMVVVTLK
MAHHHHHHMPSFFPSMPPCDRAAMLTVCEARRQYLAAHVTQLYANTNPAELWSSIVKYRERNSTELLDTVNSYDELRLSYSGYRKVVYSLVFRVSPEEEKQASVEERESRKKLYFNHPFLSPATFLAFPRAEDGTIPAVPMYAFAAKRLLLYRMRVELELVARVLPPSLQDPATRVTHRLLCPPSSSSPLSNGLTQEDIEAFLYDLLPNLRLVRDMPPWMQPYYLCHASRKFMFMCDTRRTGAISIESMMKSDVFSELLRVFESDANDAIVVFTKGCTVDVAASLVTADAAEDDTIPALVLFHEGEGNNQDDMYIVKTLTDGVVLEVRRGQLYWNSGSTEFLQPDVLCMDNWFSLALMARIYEHFTSLDIDGDGVLTVDELSRYSDGSFTRLVIERAFECHVPHSGKRHIMDYKTYLDFVIATEHAATLPAMKYIWSILDLEENRKFVTVETLRCFCKAIANELIANGLMTDISAQSILSEVIDMINPKWHEWVELDDIVRSGHQATVLPILLSYRNFYAYDCREQTAAAANDEYA
